Test system: Escherichia coli TOP10
Experiment: shrunken log2 fold change of peptide-encoding DNA abundance (4.5 h post-induction vs induction); higher = less antimicrobial activity (less host growth inhibition)
Conditions: time post-induction: 4.5 h; library: site-saturation at positions 5, 18, 19, 20
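Note: peptides expressed intracellularly from a pBAD plasmid library in pooled LB shake-flask culture, induced with 0.3% L-arabinose, DNA abundance read by NGS, three biological replicates, DESeq2 with apeglm shrinkage.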

Sequence | shrunken log2 fold change
RRIRLRPPRLPRPRPRPHNIPRP | -0.049
RRIRERPPRLPRPRPRPTVHPRP | -0.42
RRIRMRPPRLPRPRPRPEMIPRP | 2.2
RRIRGRPPRLPRPRPRPLSIPRP | 0.363
RRIRPRPPRLPRPRPRPMSSPRP | -0.135
RRIRFRPPRLPRPRPRPHSKPRP | -0.327
RRIRLRPPRLPRPRPRPKTSPRP | 0.0111
RRIRMRPPRLPRPRPRPSWIPRP | 0.0389
RRIRPRPPRLPRPRPRPVFAPRP | 0.155
RRIRSRPPRLPRPRPRPIVCPRP | 0.0317
RRIRPRPPRLPRPRPRPMYHPRP | -0.35
RRIRDRPPRLPRPRPRPGGHPRP | 0.188
RRIRLRPPRLPRPRPRPFSAPRP | -0.177
RRIRGRPPRLPRPRPRPLFRPRP | 0.444
RRIRMRPPRLPRPRPRPSFAPRP | 0.301
RRIRSRPPRLPRPRPRPRNSPRP | -0.264
RRIRMRPPRLPRPRPRPQSYPRP | 0.00618
RRIRSRPPRLPRPRPRPNEVPRP | -0.131
RRIRMRPPRLPRPRPRPLFCPRP | 0.188
RRIRARPPRLPRPRPRPHFRPRP | 0.166
RRIRQRPPRLPRPRPRPARTPRP | 0.167
RRIRLRPPRLPRPRPRPHYMPRP | -0.969
RRIRQRPPRLPRPRPRPTMQPRP | 0.0998
RRIRVRPPRLPRPRPRPKKMPRP | -0.0803
RRIRARPPRLPRPRPRPWHDPRP | -0.00134

Sequence | shrunken log2 fold change
RRIRNRPPRLPRPRPRPQQVPRP | -0.0087
RRIRKRPPRLPRPRPRPVSHPRP | 0.0254
RRIRDRPPRLPRPRPRPDNQPRP | -0.105
RRIRCRPPRLPRPRPRPGHEPRP | 0.00505
RRIRVRPPRLPRPRPRPGYFPRP | -0.366
RRIRHRPPRLPRPRPRPHRQPRP | -0.0335
RRIRFRPPRLPRPRPRPHTGPRP | -0.411
RRIRQRPPRLPRPRPRPCWVPRP | -0.0437
RRIRKRPPRLPRPRPRPNTRPRP | -0.0607
RRIRKRPPRLPRPRPRPETTPRP | 1.53
RRIRPRPPRLPRPRPRPPEWPRP | 0.443
RRIRPRPPRLPRPRPRPFFNPRP | -0.365
RRIRERPPRLPRPRPRPPWQPRP | 0.0988
RRIRARPPRLPRPRPRPWTSPRP | -0.064
RRIRTRPPRLPRPRPRPEVWPRP | 0.546
RRIRYRPPRLPRPRPRPIINPRP | -0.099
RRIRIRPPRLPRPRPRPLLWPRP | 0.0456
RRIRYRPPRLPRPRPRPEIQPRP | 0.0356
RRIRGRPPRLPRPRPRPDHLPRP | 0.117
RRIRARPPRLPRPRPRPRTFPRP | 0.287
RRIRERPPRLPRPRPRPVNHPRP | -0.229
RRIRRRPPRLPRPRPRPSKIPRP | 0.0224
RRIRKRPPRLPRPRPRPMAGPRP | 0.0722
RRIRVRPPRLPRPRPRPINLPRP | -0.304
RRIRDRPPRLPRPRPRPCKNPRP | 0.056

Sequence | shrunken log2 fold change
RRIRCRPPRLPRPRPRPWLIPRP | -0.564
RRIRWRPPRLPRPRPRPPAYPRP | -0.0328
RRIRARPPRLPRPRPRPKDLPRP | -0.0598
RRIRIRPPRLPRPRPRPFDAPRP | -0.0176
RRIRWRPPRLPRPRPRPNMTPRP | 0.0683
RRIRQRPPRLPRPRPRPFFMPRP | -0.129
RRIRGRPPRLPRPRPRPGRSPRP | 0.85
RRIRYRPPRLPRPRPRPMFPPRP | -0.463
RRIRLRPPRLPRPRPRPFISPRP | -0.182
RRIRRRPPRLPRPRPRPGAQPRP | 0.352
RRIRCRPPRLPRPRPRPEFRPRP | -0.0284
RRIRQRPPRLPRPRPRPAEIPRP | -0.219
RRIRPRPPRLPRPRPRPWANPRP | -0.0618
RRIRHRPPRLPRPRPRPVFCPRP | -0.138
RRIRPRPPRLPRPRPRPMCRPRP | -0.263
RRIRMRPPRLPRPRPRPSDNPRP | 0.0409
RRIRGRPPRLPRPRPRPCSSPRP | -0.129
RRIRRRPPRLPRPRPRPIETPRP | -0.00874
RRIRSRPPRLPRPRPRPFEPPRP | -0.268
RRIRHRPPRLPRPRPRPMREPRP | 0.237
RRIRLRPPRLPRPRPRPPNSPRP | 0.0409
RRIRTRPPRLPRPRPRPWQHPRP | -0.0511
RRIRRRPPRLPRPRPRPSGRPRP | 0.0215
RRIRARPPRLPRPRPRPNHHPRP | -0.223
RRIRERPPRLPRPRPRPGSWPRP | 2.45

Sequence | shrunken log2 fold change
RRIRLRPPRLPRPRPRPTMFPRP | -0.0861
RRIRVRPPRLPRPRPRPIYEPRP | -0.184
RRIRGRPPRLPRPRPRPIHWPRP | 0.306
RRIRSRPPRLPRPRPRPFVHPRP | -0.291
RRIRARPPRLPRPRPRPEIVPRP | 0.553
RRIRARPPRLPRPRPRPNGGPRP | -0.01
RRIRERPPRLPRPRPRPDEAPRP | 0.323
RRIRYRPPRLPRPRPRPEGKPRP | -0.0361
RRIRVRPPRLPRPRPRPITQPRP | -0.0754
RRIRKRPPRLPRPRPRPYSKPRP | -0.608
RRIRGRPPRLPRPRPRPIDRPRP | 0.127
RRIRPRPPRLPRPRPRPCCMPRP | -0.144
RRIRERPPRLPRPRPRPRMFPRP | 0.00669
RRIRNRPPRLPRPRPRPAHQPRP | -0.108
RRIRTRPPRLPRPRPRPLCQPRP | -0.0705
RRIRARPPRLPRPRPRPAFMPRP | 0.525
RRIRYRPPRLPRPRPRPTWCPRP | -0.544
RRIRCRPPRLPRPRPRPFSDPRP | -0.165
RRIRARPPRLPRPRPRPWSGPRP | -0.0707
RRIRPRPPRLPRPRPRPTECPRP | 0.0179
RRIRSRPPRLPRPRPRPVMYPRP | -0.0786
RRIRPRPPRLPRPRPRPNRPPRP | 0.274
RRIRNRPPRLPRPRPRPFVVPRP | -0.676
RRIRCRPPRLPRPRPRPRGGPRP | 0.508
RRIRIRPPRLPRPRPRPYSNPRP | -0.385

Sequence | shrunken log2 fold change
RRIRYRPPRLPRPRPRPNDKPRP | -0.892
RRIRGRPPRLPRPRPRPDQEPRP | 1.05
RRIRVRPPRLPRPRPRPKVQPRP | 3.74
RRIRSRPPRLPRPRPRPTQYPRP | -0.0116
RRIRVRPPRLPRPRPRPESAPRP | 0.522
RRIRERPPRLPRPRPRPAERPRP | 0.104
RRIRGRPPRLPRPRPRPNKAPRP | 0.454
RRIRRRPPRLPRPRPRPIEWPRP | 0.375
RRIRDRPPRLPRPRPRPNNRPRP | -0.178
RRIRVRPPRLPRPRPRPWVMPRP | -0.212
RRIRSRPPRLPRPRPRPIAFPRP | -0.388
RRIRLRPPRLPRPRPRPVNMPRP | -0.306
RRIRHRPPRLPRPRPRPSLSPRP | -0.619
RRIRMRPPRLPRPRPRPDHHPRP | -0.111
RRIRNRPPRLPRPRPRPVPKPRP | 0.883
RRIRKRPPRLPRPRPRPGEDPRP | 0.0621
RRIRGRPPRLPRPRPRPCEKPRP | 0.797
RRIRYRPPRLPRPRPRPYITPRP | -0.529
RRIRSRPPRLPRPRPRPTRTPRP | 0.386
RRIRKRPPRLPRPRPRPSEWPRP | 0.212
RRIRARPPRLPRPRPRPACKPRP | 0.558
RRIRVRPPRLPRPRPRPLVRPRP | 0.0251
RRIRYRPPRLPRPRPRPTTGPRP | -0.549
RRIRARPPRLPRPRPRPLQWPRP | 0.539
RRIRGRPPRLPRPRPRPYFSPRP | -0.00993

From the supplement of paper PMC9112550, “Optimization of the antimicrobial peptide Bac7 by deep mutational scanning” (BMC Biology, 2022)
